# Results as given in publication PMC9320952 (Molecular Microbiology, 2022).
# Biological target: the molecule itself
# Assay: negative staining electron microscopy
protein,measurement,value
"SepF (purified, freed from MBP-SepF by factor Xa) (natural protein, B. subtilis, UniProt O31728 1-151, looked up) MSMKNKLKNFFSMEDEEYEYEYIETERESHEEHEQKEKPAYNGNKPAGKQNVVSLQSVQKSSKVVLSEPRVYAEAQEIADHLKNRRAVVVNLQRIQHDQAKRIVDFLSGTVYAIGGDIQRIGSDIFLCTPDNVDVSGTISELISEDEHQRW",binding result,binds
